These results are taken from patent publication US20060241067A1, “Methods For inhibiting angiogenesis, cell migration, cell adhesion, and cell survival” (priority 2002, published 2006).

For the assay, the system named is Human umbilical vein endothelial cells (HUVEC). Kind of assay: Endothelial cell migration assay (transwell) on ECM substrates. The format is cell-based. The conditions noted are these: inventors' data, no details given. The procedure:
Human umbilical vein endothelial cells (HUVEC) were grown in Endothelial Growth Medium (containing 2% fetal bovine serum, bFGF and VEGF) (Clonetics, San Diego, Calif.). To render HUVECs quiescent for Rac and/or Rho assays, monolayers of endothelial cells were incubated for 18 hrs in Endothelial Basal Medium supplemented with 0.1% serum (Clonetics). Cell migration and adhesion assays on ECM substrates were performed as previously described in Kim et al. (S. Kim et al., Amer. J. Biol. Chem., 275:33920-33928 (2000); and S. Kim et al., Amer. J. Path., 156:1345-1362 (2000)).
Migration assays were performed essentially as described (Kim, et. al., 2000). […] HUVECS (25,000) were added to the upper chamber of inserts in migration buffer (Hepes buffered M199 medium containing 1% BSA, 2 mM MgCl2, 2 mM CaCl2 and 0.2 mM MnCl2) containing 25 μg/ml of various antibodies. In some experiments, 250 μM dibutyryl cAMP was placed in the upper and lower chambers of the transwell. Cells were allowed to migrate from the upper to the lower chamber for four hours at 37° C. The number of cells which had migrated were counted in three representative high power (200×) fields per insert. The data are presented as number of cells migrating+/−standard error of the mean. […] In this case, migrated transfected cells were identified by fluorescent microscopy and counted.

B1: Csk: enzyme that phosphorylates Src on Tyr 527 and inhibits its activity (protein, UniProt P41240 2-450, looked up)
Tyrosine-protein kinase CSK: SAIQAAWPSGTECIAKYNFHGTAEQDLPFCKGDVLTIVAVTKDPNWYKAKNKVGREGIIPANYVQKREGVKAGTKLSLMPWFHGKITREQAERLLYPPETGLFLVRESTNYPGDYTLCVSCDGKVEHYRIMYHASKLSIDEEVYFENLMQLVEHYTSDADGLCTRLIKPKVMEGTVAAQDEFYRSGWALNMKELKLLQTIGKGEFGDVMLGDYRGNKVAVKCIKNDATAQAFLAEASVMTQLRHSNLVQLLGVIVEEKGGLYIVTEYMAKGSLVDYLRSRGRSVLGGDCLLKFSLDVCEAMEYLEGNNFVHRDLAARNVLVSEDNVAKVSDFGLTKEASSTQDTGKLPVKWTAPEALREKKFSTKSDVWSFGILLWEIYSFGRVPYPRIPLKDVVPRVEKGYKMDAPDGCPPAVYEVMKNCWHLDAAMRPSFLQLREQLEHIKTHELHL
Consider B1, for which the cell migration result is reported as “causes inhibition of cell migration”.
